Reference: patent US12018066 (TRIAD NATIONAL SECURITY, dated 2024)
Substitutions are numbered along the chain they refer to. Where “and” joins values, the source holds several entries; their conditions need not be identical. Identical values can stand only once.

B1: G07 IgG1 (antibody, V domains shown)
VH: QVQLVQSGAEVKKPGESLKISCKGSGYSFTSYWIGWVRQMPGKGLEWMGIIYPGDSDIRYSPSFQGQVTISADKSFSSAYLQWSSLKASDTAMYYCARLGATGAFDIWGQGTTVTVSS
VL: QSVLIQPPSASGTPGQRVTISCSGSNSNFGSNSVSWYQQRPGTAPKLLIEGNNQRPSGVPERFSGSKSGTSASLAISGLQSEDEAEYSCASWDDSLNAFVFGPGTKLTVL
B2: H05 IgG1 (antibody, V domains shown)
VH: QVQLVQSGAEVKKPGSSVKVSCKASGGTFSSYAISWVRQAPGQGLEWMGGIIPIFGTANYAQKFQGRVTITADESTSTAYMELSSLRSEDTAVYYCARSIFGVVIISHADGYYYGMDVWGQGTTVTVSS
VL: SYVLTQPPSVSVAPGQTARITCGANNIGRISVHWYQQKPGQAPVLVVYDDSDRPSGIPERFSGSNFGNTATLTISRVEAGDEADYYCQVWDSYSDHVIFGGGTKLTVL
notes: also called H5; HO5
B3: E01 IgG1 (antibody, V domains shown)
VH: QVQLQQWGAGLLKPSETLSLKCAVYGGSFSGYYWGWIRQSTGKGLEWIGEINRSGSTNYNPSLKSRVTISVDTSKNQFSLKLSSVTAADTAVYYCARGGARYYYGSGSYRSTPRPYYFDYWGQGTLVTVSS
VL: SYELTQPPSVSVAPGETARITCGGDNIGRRHVHWYQQKPGQAPVLVIYDDSDRPSGIPDRFSGSNSGNTATLTIGRVEAGDEADYYCQVWGSSNDPHVFGTGTKLTVL
notes: also called E1
B4: S01 IgG1 (antibody, V domains shown)
VH: QVQLVESGGGLVKPGGSLRLSCAASGFTVGSNYMSWVRQAPGKGLEWVSVIYSGGSTYYADSVKGRFTISRDNSKNTLYLQMNSLRAEDTAVYYCARGSSGAWYFDLWGRGTLVTVSS
VL: EIVMTQSPSSLSASVGDSVTITCQASQDISNYLNWYQQKPGKAPKLLIYDASNLETGVPSRFSGGGSGTDFTLTITSLQPEDIATYYCQQYDNFPPTFGPGTKVDIK
notes: also called 501
B5: S01 minibody (scFv-Fc) (Fc fusion)
chain: EIVMTQSPSSLSASVGDSVTITCQASQDISNYLNWYQQKPGKAPKLLIYDASNLETGVPSRFSGGGSGTDFTLTITSLQPEDIATYYCQQYDNFPPTFGPGTKVDIKSGGSTITSYNVYYTKLSSSDTQVQLVESGGGLVKPGGSLRLSCAASGFTVGSNYMSWVRQAPGKGLEWVSVIYSGGSTYYADSVKGRFTISRDNSKNTLYLQMNSLRAEDTAVYYCARGSSGAWYFDLWGRGTLVTVSS
notes: also called 501
B6: B04 IgG1 (antibody, V domains shown)
VH: QVQLVESGAEVKKPGASVKVSCKASGYTFTRYYMHWVRQAPGQGLEWMGIINPSGGTTSYAQKFQGRVTMTRDTSTSTVYMELSSLRSEDTAVYYCARSFGELTSFDYWGQGTLVTVSS
VL: SYVLTQPPSVSVAPGKTARITCGGNNIGIRSVHWYQQKPGQAPVLVIYYDSDRPSGIPERFSGSKSGNTATLTISRVEAGDEADYYCQVWDSSSDHPVFGGGTKLTVL
B7: F07 IgG1 (antibody, V domains shown)
VH: QVQLVQSGAEVKKPGSSVRVSCKVSGYTFTGYYMHWVRQAPGQGLEWMGIINPSGGSTSYAQKFQGRVTMTRDTSTSTVYMELSSLRSEDTAVYYCARVRVGASDAFDIWGQGTMVTVSS
VL: B6 VL with K16Q, I29S, R30K, I47V, Y49D, K65N, T73I, D95V, P97Y, G101T

Target: T1, SARS-CoV-2 spike protein receptor binding domain (RBD2) (SARS-CoV-2, UniProt P0DTC2 319-537)
Assay: SPR

| Binder | Kd [nM] |
| --- | --- |
| B1 | 320 |
| B2 | 51 |
| B3 | 90 |
| B4 | 170 |
| B5 | 22700 |
| B6 | 210 |
| B7 | 300 |

Target: T1, SARS-CoV-2 spike protein receptor …
Assay: SPR, immobilized antibody, RBD injected, 1:1 fit

| Binder | Kd [nM] |
| --- | --- |
| B1 | 320 |
| B2 | 51 |
| B3 | 90 |
| B4 | 170 |
| B6 | 210 |
| B7 | 300 |

Target: T1, SARS-CoV-2 spike protein receptor …
Assay: not given

| Binder | Kd [nM] |
| --- | --- |
| B1 | 246 |
| B3 | 90 |
| B4 | 174 |

Target: T1, SARS-CoV-2 spike protein receptor …
Assay: SPR, IgG

| Binder | Kd |
| --- | --- |
| B1 | 2000 nM |
| B3 | 48 nM |
| B6 | 100 nM and 300 nM |

Target: T1, SARS-CoV-2 spike protein receptor …
Assay: SPR sandwich binning, ligand Anti-His

| Binder | normalized analyte binding to RBD2 held by the immobilized ligand |
| --- | --- |
| B1 | 0.92 |
| B2 | 1.35 |
| B3 | 2 |
| B4 | 1 |
| B6 | 1.68 |
| B7 | 1.48 |

Target: T1, SARS-CoV-2 spike protein receptor …
Assay: SPR sandwich binning, ligand H01

| Binder | normalized analyte binding to RBD2 held by the immobilized ligand |
| --- | --- |
| B1 | 0.94 |
| B2 | -0.1 |
| B3 | 2.35 |
| B4 | -0.03 |
| B6 | 0.71 |
| B7 | 0.1 |

Target: T1, SARS-CoV-2 spike protein receptor …
Assay: not given
Remark: another data set of the same source

| Binder | Kd [nM] |
| --- | --- |
| B2 | 46 |
| B6 | 208 |
| B7 | 300 |

Target: T1, SARS-CoV-2 spike protein receptor …
Assay: SPR sandwich binning, ligand S01

| Binder | normalized analyte binding to RBD2 held by the immobilized ligand |
| --- | --- |
| B2 | 1.73 |
| B3 | 0.03 |
| B4 | -0.03 |
| B6 | -0.59 |
| B7 | 1.28 |

Target: T1, SARS-CoV-2 spike protein receptor …
Assay: SPR sandwich binning, ligand CR3022

| Binder | normalized analyte binding to RBD2 held by the immobilized ligand |
| --- | --- |
| B1 | 1.56 |
| B2 | -0.15 |
| B3 | 2.39 |
| B4 | 1.39 |
| B6 | 2.22 |
| B7 | 0.9 |

Target: T1, SARS-CoV-2 spike protein receptor …
Assay: SPR sandwich binning, ligand H05

| Binder | normalized analyte binding to RBD2 held by the immobilized ligand |
| --- | --- |
| B1 | 1.03 |
| B2 | -0.17 |
| B3 | 2.18 |
| B4 | 1.2 |
| B6 | 1.87 |
| B7 | 1.39 |

Target: T1, SARS-CoV-2 spike protein receptor …
Assay: SPR sandwich binning, ligand G07

| Binder | normalized analyte binding to RBD2 held by the immobilized ligand |
| --- | --- |
| B1 | -0.05 |
| B2 | 0.9 |
| B3 | 2.43 |
| B6 | -0.07 |
| B7 | 0.14 |

Target: T1, SARS-CoV-2 spike protein receptor …
Assay: SPR sandwich binning, ligand F07

| Binder | normalized analyte binding to RBD2 held by the immobilized ligand |
| --- | --- |
| B1 | 0.08 |
| B2 | 0.9 |
| B3 | 0.62 |
| B4 | 0.48 |
| B6 | 0.05 |
| B7 | 0.07 |

Target: T1, SARS-CoV-2 spike protein receptor …
Assay: SPR sandwich binning, ligand E08

| Binder | normalized analyte binding to RBD2 held by the immobilized ligand |
| --- | --- |
| B1 | 1.86 |
| B2 | -0.12 |
| B3 | 2.33 |
| B4 | 1.79 |
| B6 | 2.24 |
| B7 | 1.78 |

Target: T1, SARS-CoV-2 spike protein receptor …
Assay: SPR sandwich binning, ligand E01

| Binder | normalized analyte binding to RBD2 held by the immobilized ligand |
| --- | --- |
| B1 | 1.57 |
| B2 | 1.81 |
| B3 | -0.07 |
| B4 | -0.13 |
| B6 | -0.15 |
| B7 | 1.9 |

Target: T1, SARS-CoV-2 spike protein receptor …
Assay: SPR sandwich binning, ligand B04

| Binder | normalized analyte binding to RBD2 held by the immobilized ligand |
| --- | --- |
| B1 | -0.03 |
| B2 | 1.75 |
| B3 | -0.09 |
| B4 | 0.06 |
| B6 | -0.11 |
| B7 | -0.05 |

Target: T2, human ACE2 receptor on HEK cells (Human ACE2 293 cell line) (human, UniProt Q9BYF1 18-805)
T2 construct: whole, on cells; also called HEK-ACE2; ACE2 293 cells
T2 sequence (Q9BYF1 18-805): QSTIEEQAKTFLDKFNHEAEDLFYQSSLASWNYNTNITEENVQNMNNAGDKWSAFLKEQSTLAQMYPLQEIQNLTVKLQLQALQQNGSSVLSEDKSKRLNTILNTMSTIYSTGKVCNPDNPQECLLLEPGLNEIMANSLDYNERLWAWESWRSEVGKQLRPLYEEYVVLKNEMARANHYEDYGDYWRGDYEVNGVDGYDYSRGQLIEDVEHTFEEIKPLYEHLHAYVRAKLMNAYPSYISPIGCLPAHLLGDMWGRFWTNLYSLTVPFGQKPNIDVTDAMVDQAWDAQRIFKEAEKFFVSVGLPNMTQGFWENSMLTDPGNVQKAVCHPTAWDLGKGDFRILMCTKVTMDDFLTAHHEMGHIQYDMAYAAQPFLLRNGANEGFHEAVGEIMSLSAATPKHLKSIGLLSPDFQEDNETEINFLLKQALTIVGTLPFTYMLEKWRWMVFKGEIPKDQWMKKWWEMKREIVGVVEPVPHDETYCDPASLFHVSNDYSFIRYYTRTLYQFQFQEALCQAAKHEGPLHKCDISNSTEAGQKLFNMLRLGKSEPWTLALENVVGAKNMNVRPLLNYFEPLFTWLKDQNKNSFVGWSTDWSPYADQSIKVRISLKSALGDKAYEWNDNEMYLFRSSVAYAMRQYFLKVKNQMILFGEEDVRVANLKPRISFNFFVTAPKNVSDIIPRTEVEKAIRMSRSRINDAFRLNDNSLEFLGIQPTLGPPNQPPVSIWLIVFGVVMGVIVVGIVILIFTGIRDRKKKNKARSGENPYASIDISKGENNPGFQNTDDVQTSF
Assay: fluorescence microscopy, PE-labelled IgG on HEK-ACE2 cells without RBD2-sfGFP

| Binder | binding result |
| --- | --- |
| B1 | no binding (tested: 1 ug/mL) |
| B4 | no binding (tested: 1 ug/mL) |
| B6 | no binding (tested: 1 ug/mL) |
| B7 | no binding (tested: 1 ug/mL) |

Target: SARS-CoV spike protein receptor binding domain (RBD1) (SARS-CoV, UniProt P59594 306-527)
Assay: ELISA, minibodies (FIG. 6)

| Binder | binding result |
| --- | --- |
| B5 | no binding |

Target: SARS-CoV-2 spike protein on whole SARS-CoV-2 virus (SARS-CoV-2, UniProt P0DTC2 14-1273)
Assay: cell-based or functional assay

| Binder | NT50 (nM), half neutralization titer [nM] | Nmax (%), neutralization maximum [%] |
| --- | --- | --- |
| B3 | 6.4 | 104 |
| B4 | 14.6 | 106 |
| B6 | 56.7 | 53.3 |
| B7 | 45.2 | 74.7 |

Target: T1, SARS-CoV-2 spike protein receptor …
Assay: SPR sandwich binning, ligand NN54

| Binder | normalized analyte binding to RBD2 held by the immobilized ligand |
| --- | --- |
| B1 | 1.73 |
| B3 | 2.78 |
| B4 | 1.64 |
| B6 | 2.5 |
| B7 | 2.34 |
